In patent US20210388087A1 (Chugai, published 2021):

Target: T1, CD3 epsilon homodimer protein (UniProt P07766 23-126)
T1 construct: also called CD3 (CD3 epsilon)
Assay: SPR, CD3 epsilon homodimer on chip, one-arm antibody as analyte;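 further: surface plasmon resonance at 25 °C with CD3 epsilon homodimer amine-coupled to a CM4 sensor chip, antibody injected as analyte, HBS-EP+ as running buffer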

T1 sequence (P07766 23-126): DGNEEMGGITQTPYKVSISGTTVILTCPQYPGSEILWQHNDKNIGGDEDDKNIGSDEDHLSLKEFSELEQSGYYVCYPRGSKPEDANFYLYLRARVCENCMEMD

Binder	KD ratio (KD of CE115HA000/KD of altered form)
CE115HA000 N54L (antibody, human IgG1, kappa, L234A L235A, N297A, name in Kabat numbering, one-arm antibody) heavy: QVQLVESGGGVVQPGRSLRLSCAASGFTFSNAWMHWVRQAPGKGLEWVAQIKAKSNLYATYYAESVKGRFTISRDDSKNSLYLQMNSLKTEDTAVYYCRYVHYGAYYGVDAWGQGTTVTVSSASTKGPSVFPLAPSSKSTSGGTAALGCLVKDYFPEPVTVSWNSGALTSGVHTFPAVLQSSGLYSLSSVVTVPSSSLGTQTYICNVNHKPSNTKVDKKVEPKSCDKTHTCPPCPAPEAAGGPSVFLFPPKPKDTLMISRTPEVTCVVVDVSHEDPEVKFNWYVDGVEVHNAKTKPREEQYASTYRVVSVLTVLHQDWLNGKEYKCKVSNKALPAPIEKTISKAKGQPREPQVYTLPPSRCELTKNQVSLSCAVKGFYPSDIAVEWESNGQPENNYKTTPPVLDSDGSFFLVSKLTVDKSRWQQGNVFSCSVMHEALHNHYTQKSLSLSPDYKDDDDK EPKSSDKTHTCPPCPAPELLGGPSVFLFPPKPKDTLMISRTPEVTCVVVDVSHEDPEVKFNWYVDGVEVHNAKTKPREEQYNSTYRVVSVLTVLHQDWLNGKEYKCKVSNKALPAPIEKTISKAKGQPREPQVCTLPPSRDELTKNQVSLWCLVKGFYPSDIAVEWESNGQPENNYKTTPPVLDSDGSFFLYSKLTVDKSRWQQGNVFSCSVMHEALHNRYTQKSLSLSP light: DIVMTQSPLSLPVTPGEPASISCRSSQSLVHSNRNTYLHWYQQKPGQAPRLLIYKVSNRFSGVPDRFSGSGSGTDFTLKISRVEAEDVGVYYCGQGTQVPYTFGQGTKLEIKRTVAAPSVFIFPPSDEQLKSGTASVVCLLNNFYPREAKVQWKVDNALQSGNSQESVTEQDSKDSTYSLSSTLTLSKADYEKHKVYACEVTHQGLSSPVTKSFNRGEC	0.91
CE115HA000 N54Q (antibody, human IgG1, kappa, L234A L235A, N297A, name in Kabat numbering, one-arm antibody) heavy: QVQLVESGGGVVQPGRSLRLSCAASGFTFSNAWMHWVRQAPGKGLEWVAQIKAKSNQYATYYAESVKGRFTISRDDSKNSLYLQMNSLKTEDTAVYYCRYVHYGAYYGVDAWGQGTTVTVSSASTKGPSVFPLAPSSKSTSGGTAALGCLVKDYFPEPVTVSWNSGALTSGVHTFPAVLQSSGLYSLSSVVTVPSSSLGTQTYICNVNHKPSNTKVDKKVEPKSCDKTHTCPPCPAPEAAGGPSVFLFPPKPKDTLMISRTPEVTCVVVDVSHEDPEVKFNWYVDGVEVHNAKTKPREEQYASTYRVVSVLTVLHQDWLNGKEYKCKVSNKALPAPIEKTISKAKGQPREPQVYTLPPSRCELTKNQVSLSCAVKGFYPSDIAVEWESNGQPENNYKTTPPVLDSDGSFFLVSKLTVDKSRWQQGNVFSCSVMHEALHNHYTQKSLSLSPDYKDDDDK EPKSSDKTHTCPPCPAPELLGGPSVFLFPPKPKDTLMISRTPEVTCVVVDVSHEDPEVKFNWYVDGVEVHNAKTKPREEQYNSTYRVVSVLTVLHQDWLNGKEYKCKVSNKALPAPIEKTISKAKGQPREPQVCTLPPSRDELTKNQVSLWCLVKGFYPSDIAVEWESNGQPENNYKTTPPVLDSDGSFFLYSKLTVDKSRWQQGNVFSCSVMHEALHNRYTQKSLSLSP light: DIVMTQSPLSLPVTPGEPASISCRSSQSLVHSNRNTYLHWYQQKPGQAPRLLIYKVSNRFSGVPDRFSGSGSGTDFTLKISRVEAEDVGVYYCGQGTQVPYTFGQGTKLEIKRTVAAPSVFIFPPSDEQLKSGTASVVCLLNNFYPREAKVQWKVDNALQSGNSQESVTEQDSKDSTYSLSSTLTLSKADYEKHKVYACEVTHQGLSSPVTKSFNRGEC	0.8
